Experiments:
[1] = molecular target: L-selectin on Jurkat cells (UniProt P14151); assay: cell-based or functional assay
[2] = molecular target: CD34 on CHO/FTVII/C2GnT cells, no sulfotransferase cDNA; assay: flow cytometry; CHO/FTVII/C2GnT cells with CD34 cDNA alone
[3] = molecular target: CD34 on CHO/FTVII/C2GnT cells cotransfected with KSGal6ST cDNA; assay: flow cytometry; CHO/FTVII/C2GnT cells with CD34 (2 µg) and 1.0 µg KSGal6ST cDNA
[4] = molecular target: CD34 on CHO/FTVII/C2GnT cells cotransfected with KSGal6ST cDNA; assay: flow cytometry; CHO/FTVII/C2GnT cells with CD34 (2 µg) and 1.5 µg KSGal6ST cDNA
[5] = molecular target: CD34 on CHO/FTVII/C2GnT cells cotransfected with HEC-GlcNAc6ST cDNA; assay: flow cytometry; CHO/FTVII/C2GnT cells with CD34 (2 µg) and 1 µg HEC-GlcNAc6ST cDNA
CD34 on CHO/FTVII/C2GnT cells cotransfected with HEC-GlcNAc6ST cDNA, sequence (P28906 32-385): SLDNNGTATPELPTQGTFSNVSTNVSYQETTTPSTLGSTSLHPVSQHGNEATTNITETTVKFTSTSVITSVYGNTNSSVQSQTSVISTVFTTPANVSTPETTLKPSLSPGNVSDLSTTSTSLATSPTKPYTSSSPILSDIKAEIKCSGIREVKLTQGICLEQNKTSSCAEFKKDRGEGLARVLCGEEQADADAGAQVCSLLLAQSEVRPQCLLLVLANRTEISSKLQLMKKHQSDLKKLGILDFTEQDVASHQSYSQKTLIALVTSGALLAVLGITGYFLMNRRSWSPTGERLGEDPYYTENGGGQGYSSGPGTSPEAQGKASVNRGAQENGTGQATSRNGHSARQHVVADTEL

[6] = molecular target: CD34 on CHO/FTVII/C2GnT cells cotransfected with HEC-GlcNAc6ST cDNA; assay: flow cytometry; CHO/FTVII/C2GnT cells with CD34 (2 µg) and 1.5 µg HEC-GlcNAc6ST cDNA
[7] = molecular target: CD34 on CHO/FTVII/C2GnT cells cotransfected with KSGal6ST and HEC-GlcNAc6ST cDNAs; assay: flow cytometry; CHO/FTVII/C2GnT cells with CD34 (2 µg), 1 µg KSGal6ST and 0.5 µg HEC-GlcNAc6ST cDNA
CD34 on CHO/FTVII/C2GnT cells cotransfected with KSGal6ST and HEC-GlcNAc6ST cDNAs, sequence (P28906 32-385): as above

[8] = molecular target: CD34 on CHO/FTVII/C2GnT cells cotransfected with KSGal6ST and HEC-GlcNAc6ST cDNAs; assay: flow cytometry; CHO/FTVII/C2GnT cells with CD34 (2 µg), 0.5 µg KSGal6ST and 0.5 µg HEC-GlcNAc6ST cDNA
[9] = molecular target: CD34 on CHO/FTVII/C2GnT cells cotransfected with KSGal6ST and HEC-GlcNAc6ST cDNAs; assay: flow cytometry; CHO/FTVII/C2GnT cells with CD34 (2 µg), 0.5 µg KSGal6ST and 1.0 µg HEC-GlcNAc6ST cDNA
rGlyCAM-1/IgG = molecular target: T1, rGlyCAM-1/IgG (human, UniProt Q02596 20-151 (mouse entry), limits assumed, not fucosylated by FucT-VII, no sulfotransferase co-transfected); assay: cell-based or functional assay
T1 sequence (looked up): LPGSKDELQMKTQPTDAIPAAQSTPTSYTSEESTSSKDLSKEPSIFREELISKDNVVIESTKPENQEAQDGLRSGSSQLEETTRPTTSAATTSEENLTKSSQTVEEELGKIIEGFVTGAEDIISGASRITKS

[10] = molecular target: T2, rGlyCAM-1/IgG FT KSGal6ST (human, UniProt Q02596 20-151 (mouse entry), limits assumed, glycans made in COS cells co-transfected with C2GnT, FucT-VII and KSGal6ST (fucosylated, Gal-6-sulfate)); assay: cell-based or functional assay
T2 sequence (looked up): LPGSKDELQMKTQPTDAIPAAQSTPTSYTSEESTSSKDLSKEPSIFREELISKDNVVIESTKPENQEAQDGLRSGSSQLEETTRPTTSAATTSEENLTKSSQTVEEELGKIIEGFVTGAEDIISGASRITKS

[11] = molecular target: T3, rGlyCAM-1/IgG FT huGlcNAc6ST (human, UniProt Q02596 20-151 (mouse entry), limits assumed, glycans made in COS cells co-transfected with C2GnT, FucT-VII and huGlcNAc6ST (fucosylated, GlcNAc-6-sulfate)); assay: cell-based or functional assay
T3 sequence (looked up): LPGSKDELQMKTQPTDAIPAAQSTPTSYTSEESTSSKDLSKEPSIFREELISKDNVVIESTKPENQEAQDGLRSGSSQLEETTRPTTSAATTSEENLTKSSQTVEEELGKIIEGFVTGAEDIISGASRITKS

[12] = molecular target: T4, rGlyCAM-1/IgG FT HEC-GlcNAc6ST (human, UniProt Q02596 20-151 (mouse entry), limits assumed, glycans made in COS cells co-transfected with C2GnT, FucT-VII and HEC-GlcNAc6ST (fucosylated, GlcNAc-6-sulfate)); assay: cell-based or functional assay
T4 sequence (looked up): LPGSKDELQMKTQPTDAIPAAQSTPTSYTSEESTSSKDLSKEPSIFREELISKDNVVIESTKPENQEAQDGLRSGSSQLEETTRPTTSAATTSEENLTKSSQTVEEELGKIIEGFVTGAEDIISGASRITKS

CD34 on CHO/FTVII/C2GnT cells cotransfected with KSGal6ST cDNA, sequence (P28906 32-385): as the sequence (P28906 32-385) above
CD34 on CHO/FTVII/C2GnT cells, no sulfotransferase cDNA, sequence (P28906 32-385): as the sequence (P28906 32-385) above

Molecule: DREG56 (antibody)
- Rolling of Jurkat cells on rGlyCAM-1/IgG FT after treatment with 5 µg/ml DREG56 (rolling cells) [1]: 0

Molecule: L-selectin/IgM chimera (from UniProt P18337 39-332; P01871 106-453) (Fc fusion)
- MFI (background signal) [2]: 139 MFI
- MFI (background subtracted) [3]: 364 MFI
- MFI (background subtracted) [4]: 391 MFI
- MFI (background subtracted) [5]: 114 MFI
- MFI (background subtracted) [6]: 163 MFI
- MFI (background subtracted) [7]: 917 MFI
- MFI (background subtracted) [8]: 935 MFI
- MFI (background subtracted) [9]: 830 MFI

B1: human HEC-GlcNAc6ST (enzyme)
chain: MLLPKKMKLLLFLVSQMAILALFFHMYSHNISSLSMKAQPERMHVLVLSSWRSGSSFVGQLFGQHPDVFYLMEPAWHVWMTFKQSTAWMLHMAVRDLIRAVFLCDMSVFDAYMEPGPRRQSSLFQWENSRALCSAPACDIIPQDEIIPRAHCRLLCSQQPFEVVEKACRSYSHVVLKEVRFFNLQSLYPLLKDPSLNLHIVHLVRDPRAVFRSRERTKGDLMIDSRIVMGQHEQKLKKEDQPYYVMQVICQSQLEIYKTIQSLPKALQERYLLVRYEDLARAPVAQTSRMYEFVGLEFLPHLQTWVHNITRGKGMGDHAFHTNARDALNVSQAWRWSLPYEKVSRLQKACGDAMNLLGYRHVRSEQEQRNLLLDLLSTWTVPEQIH
- incorporation of ^35S-SO4 into the GlyCAM-1 chimera in co-transfected COS cells (rGlyCAM-1/IgG): > 10 fold

B2: L-selectin on Jurkat cells (receptor, UniProt P14151 39-372, looked up)
chain: WTYHYSEKPMNWQRARRFCRDNYTDLVAIQNKAEIEYLEKTLPFSRSYYWIGIRKIGGIWTWVGTNKSLTEEAENWGDGEPNNKKNKEDCVEIYIKRNKDAGKWNDDACHKLKAALCYTASCQPWSCSGHGECVEIINNYTCNCDVGYYGPQCQFVIQCEPLEAPELGTMDCTHPLGNFSFSSQCAFSCSEGTNLTGIEETTCGPFGNWSSPEPTCQVIQCEPLSAPDLGIMNCSHPLASFSFTSACTFICSEGTELIGKKKTICESSGIWSNPSPICQKLDKSFSMIKEGDYNPLFIPVAVMVTAFSGLAFIIWLARRLKKGKKSKRSMNDPY
- fraction of tethered cells relative to non-sulfated GlyCAM-1/IgG (FT) [10]: 6 fold
- fraction of tethered cells relative to non-sulfated GlyCAM-1/IgG (FT) [11]: 2 fold
- fraction of tethered cells relative to non-sulfated GlyCAM-1/IgG (FT) [12]: 2 fold

From patent US6933142 (University of California, dated 2005)
